Data on one substance can be found in PMC10338669.

In the assay the target is aSyn-MFP (alpha-synuclein with C-terminal MFP/mMaroon1, single-fusion acceptor) (UniProt P37840). Briefly: FRET or BRET.

“O-aSyn (alpha-synuclein with N-terminal OFP/mCyRFP1, single-fusion donor) (from UniProt P37840 1-140) (natural protein)” gave an FRET efficiency E (Ex 473 nm) of 0.266 and an FRET efficiency E (Ex 532 nm) of 0.229.
